In PMC9705753:

Target: Gal4 DNA-Binding Domain (DBD) linked to the LOV domain of WC-1 (N. crassa) (UniProt Q01371)
Experiment: two-hybrid; Y2H-like optogenetic switch (FUN-LOV variants) in S. cerevisiae BY4741 or 59A-EC1118; genome-integrated luciferase reporter under P_GAL1 or P_5XGAL1; constant blue light or a single 2-h blue-light pulse (466 nm, 24 umol m^-2 s^-1) compared with constant darkness; 25°C, SC medium with 1 mM luciferin

Chain of UniProt Q01371 (Q01371 381-508): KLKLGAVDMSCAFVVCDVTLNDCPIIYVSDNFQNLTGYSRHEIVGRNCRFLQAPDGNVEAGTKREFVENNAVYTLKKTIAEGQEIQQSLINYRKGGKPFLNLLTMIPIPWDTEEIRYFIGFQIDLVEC

fold induction of luciferase expression (blue-light pulse / darkness), 59A-EC1118 strain, P 5XGAL1-Luc: 982 fold
Substance: Gal4-activation domain (AD) tethered to the LOV domain of VVD (from UniProt Q9C3Y6 1-186) (domain or fragment)
